Laboratory results reported in the RNAGym collection of RNA variant scans (doi:10.7554/elife.80360).

B1: Hammerhead Ribozyme (parent)
chain: ACCGGAUGUGCUUUCCGGUCUGAUGAGUCCGUGAGGACGAAACAG

Variants of: B1
Assay: self-cleavage, relative activity (ratio to wild type); higher = more cleavage; co-transcriptional

Variant	self-cleavage
U14C U24A	0.726
U32G G36A	0.556
C20G A34C	0.365
A6C G25A	0.286
G4A G33C	0.549
G18A U19A	0.367
U7G G22C	0.389
C2A U13A	1.08
G27A C43U	0.33
A6G U13A	0.842
C15U G39A	0.347
G17C G39A	0.342
U14A G35A	0.665
G27U A37U	0.521
A1G U13A	1.96
G4C A37U	0.294
C16U G31A	0.731
A26U A42U	0.261
A6G U21A	0.393
G33C A40U	0.409
U14A G36C	0.319
A1C A34C	0.477
G17A U19G	0.332
U9G A44C	0.39

Variant	self-cleavage
G35C A37C	0.504
G5A C43A	0.34
A6G U14G	1.13
A26U G33U	0.659
U7C A34U	0.995
U7C A34C	1.16
U9C U14A	0.872
G5U A37U	0.417
A6G C30U	0.634
A1U C29U	0.595
A6G G22C	0.284
G22U C43A	0.293
C2U C29U	1.29
G10C A37C	1.21
C30G A37C	0.337
G36A C43U	0.378
U13A G31A	1.46
U13A A44G	1.8
G4A G18C	0.333
A1G C38G	0.865
U7C U13A	1.22
A26G U32A	0.373
G17A G39U	0.316
U24G G36C	0.452

Variant	self-cleavage
G22A G33A	0.353
A6U C43A	0.326
G5U G39C	0.306
A23G G27U	0.282
U14C A34C	0.791
U7C U24A	1.4
G27A A37U	0.522
G27A A37C	0.743
A34U G39C	0.351
U14C C20G	0.301
G22A A40C	0.371
U14G G22A	0.314
C2U A37U	0.849
G8U G25U	0.391
G10A A40G	0.346
C30U A40G	0.333
C30U A40U	0.345
G27A G45U	0.472
G8U C43A	0.254
G8U C43G	0.333
G17U C20A	0.422
C11A G39U	0.29
A40C	0.73
U19C A26G	0.242

Variant	self-cleavage
G10C U19C	0.503
U7A A40U	0.244
A23C C29U	0.337
G10A U12A	0.985
G17A C30A	0.561
U24A A26U	0.756
U7G U32G	0.796
U12A G27A	0.77
U24G G35C	0.839
A23U U32A	0.376
G18A A42G	0.347
G4C U21A	0.309
U9G C43G	0.455
G17U U24C	0.697
G4C C16U	1.39
G17U U32G	0.73
C2U G31C	0.974
G18A C29A	0.44
A26G G33C	0.409
U32C G45A	0.776
U32A G39C	0.485
A1G G25C	0.319
G17C U28G	0.395
C2G G17C	0.329

Variant	self-cleavage
C2G G17A	0.377
C2G G17U	0.291
G4U A42C	0.265
C3U C11A	1.16
G22A G25A	0.377
G4A U7A	0.538
C3U G33U	0.991
G39C C43A	0.336
G31C G45A	0.438
U12A G36C	0.758
G4C U7C	0.353
G8A C15G	0.957
G10A A42G	0.288
U14G C29G	0.737
C2A U24A	0.929
C16G A37G	0.533
C16A A23U	0.305
U7G C29U	1.02
U14G G18U	0.522
U12G C16A	1.18
G4U U14G	0.722
A42C A44G	1.06
G31C A42G	0.232
U14C G25A	0.305

Variant	self-cleavage
U7G G45A	0.559
U19A G33A	0.356
C11G U32C	1.12
G5U G35C	0.361
C2G C29U	0.365
G4A U13C	0.824
U9G U12A	1.04
U14G U19C	0.715
U7C G8A	0.95
G25U A44U	0.373
U12G C29G	0.736
U21A A40G	0.271
U28G C29G	0.547
C29A A41C	0.355
C29A A41U	0.301
A6G U7A	1.09
C15U G27U	0.579
U12G A23C	0.459
A34C A41U	0.363
U13G A41U	0.272
C11A G31U	1.08
A1U G39C	0.356
A23U C38U	0.341
U14A G22A	0.36

Variant	self-cleavage
C2A G31C	0.66
A23U A44U	0.336
A23U A44G	0.706
C3G G4A	0.283
U14A A44G	1.06
G10U U19A	0.347
A26U G31A	0.738
G4A G17C	0.399
G8C A34C	0.83
G8A U19G	0.448
A1U C3G	0.418
G25U G36C	0.312
U32A A41U	0.405
G18C U28G	0.44
C15A G27U	0.4
G17A A41G	0.332
U7A U21G	0.319
C16A C30G	0.591
G18U U24G	0.607
A1U G22A	0.372
G25A G27A	0.306
C3A A37U	0.388
A37G G39A	0.362
G17A U21A	0.351

Variant	self-cleavage
G39A A40C	0.387
U19A U21C	0.248
G31U A42U	0.295
A26C G31C	0.411
C15G G35A	0.468
U12G A26U	0.708
C2A C43U	0.308
U13A U32A	1.31
G4U A6C	0.282
A1C A40U	0.484
G8C G35U	0.775
G8U C30U	0.942
G5C A6U	0.631
C11U A26U	0.64
G8U G35C	0.842
U14C G45C	0.441
U14C G45U	0.485
A6U C29G	0.468
C2G G45A	0.349
U21C G22C	0.39
C2G C20A	0.274
U7G G31C	0.968
G17A C20G	0.367
G5C C11G	0.873

Variant	self-cleavage
U7A U32A	1.38
C29U G36C	0.603
C16A G27A	0.715
C11G U13C	1.32
C11A A34G	0.996
A26U C38G	0.318
G31A G39A	0.356
G35C G39U	0.307
C3U C29U	0.926
G18A C30U	0.783
A6U A37G	0.529
U19A G25A	0.347
C15G U19C	0.232
G25U U28C	0.274
U13C C43G	0.278
U19C C43A	0.284
G33A A34G	0.484
G4A C16G	0.977
G4A C16A	0.907
A37G A44C	0.313
C29G C43A	0.376
C3U A37G	0.799
U19G A40G	0.384
U19A A42G	0.34

Variant	self-cleavage
C15A C20G	0.289
G17C	0.575
C29A C38U	0.652
A26U C43G	0.415
C2U G5U	0.535
G31A A42U	0.335
G5U G8U	0.81
G17U U21C	0.306
C2G G8A	0.385
A34G G36U	0.419
C3G U12G	0.356
C30G A42U	0.227
A34C C38G	0.436
A34C C38U	0.758
G8A A37U	0.731
U7A G36A	0.681
G10U A37G	0.877
G33A A37G	1.28
C15U C29U	0.808
A23G A41U	0.298
A6C C20U	0.371
G4C C29G	0.347
U7C U9A	0.524
U19G G36C	0.351

Variant	self-cleavage
G17U C30U	0.755
U7G G27A	0.81
G18U C20G	0.382
G5C U32C	0.559
G4A G5U	0.398
G5U U21A	0.45
A1U A37U	0.464
G33C C43G	0.28
G8A A44U	0.648
G18U G39U	0.392
C38A G45A	0.464
G22C A26U	0.343
G22C A26C	0.3
A37U A42C	0.304
A41C G45C	0.336
G22U A42U	0.36
A42U G45C	0.404
C30U A34C	1.03
U12C C38U	0.832
A1G A40C	0.691
G35C A44U	0.465
C11G C15U	0.986
C11G C15A	0.824
G27A G31U	0.923

Variant	self-cleavage
G10A U19A	0.347
G27A C38U	0.965
C20A U24G	0.594
A1C C3G	0.549
U9C C20A	0.363
A34U A37C	0.572
U21A G36U	0.418
G35A C38U	0.587
U28G G36A	0.573
C16U A40C	0.507
C2U G25U	0.28
G5C C30U	0.539
U13G C29G	0.581
U7A G27C	0.449
G27A C29U	0.598
G27A C29A	0.42
U28C A37G	0.914
G39U A41U	0.326
U14C A42C	0.33
C16A C43A	0.304
C16A G25A	0.347
G35A A40C	0.435
U7A C43A	0.317
C11A	1.12

Variant	self-cleavage
U12C U21G	0.609
C2A G35C	0.429
A1C C30G	0.34
G8U U19G	0.369
G8U U19C	0.649
A42G	0.336
G22A G27C	0.39
A26U U32C	0.819
C16U A41U	0.264
G25C C30A	0.262
A1G A34C	1.1
A40C C43G	0.33
C15G G33C	1.04
A26G C29A	0.402
G8C G36C	0.791
A1U G10C	0.6
C11A A26U	1.03
A1C G25C	0.313
A1C G25A	0.255
A6C A42G	0.329
U13G G25A	0.367
G8U U24G	1.11
U28G C30G	0.315
U7C G45C	0.454

Variant	self-cleavage
A23G A44U	0.339
G25C G35A	0.344
C3G G17U	0.583
G18U U28C	0.351
U9C C30A	0.902
U13C A34U	1.12
G25U	0.331
A6C G39U	0.271
G33C G36U	0.338
U7C U19G	0.413
G5A C20G	0.286
C16U A42G	0.232
U9G U19G	0.343
C15G G31U	0.856
C29A G39C	0.326
U9C C38U	1.1
C29A C43U	0.396
A1U G45C	0.493
G4A G31C	0.594
U13C U32C	1.11
G18U C29A	0.538
C16G G27U	0.304
